Data reported in paper PMC10875621.

Target: netrin-1 (UniProt O95631)

percent of DCC-HaloTag speckles in grip (immobile) phase in growth-cone filopodia of hippocampal neurons on netrin-1-coated substrate, TIRF speckle imaging (15% grip on polylysine alone): 40%
Substance: DCC-HaloTag (from UniProt P43146 26-1447) (receptor)
